Experimental data as given in publication doi:10.1101/2023.03.09.531992.

Columns and labels:
[1] = target: clientized GST-S tail construct Thr1273Glu (SARS-CoV-2 S, Leu1244 to Thr1273) (SARS-CoV-2) (UniProt P0DTC2); experiment: pull-down
[2] = target: clientized GST-S tail construct Thr1273Asp (SARS-CoV-2 S, Leu1244 to Thr1273) (SARS-CoV-2) (UniProt P0DTC2); experiment: pull-down

endogenous coatomer complex (COPI), mouse liver cytosol, Q8CIE6;Q9JIF7;O55029;Q9QZE5;Q5XJY5;O89079;P61924
fold binding against the Lys-x-Lys-x-xCT dibasic mutant [1]: 2 fold
fold higher affinity than the wild-type GST-S tail construct [1]: 17 fold
fold binding against the Lys-x-Lys-x-xCT dibasic mutant [2]: 2 fold
fold higher affinity than the wild-type GST-S tail construct [2]: 17 fold
